# Laboratory results as given in US20090036382A1, “TGF-Beta Modulators and Use Thereof” (Universita' Degli Studi Di Padova, priority 2006, published 2009).
# Columns and labels:
# Assay type in all cases: cell-based
# pro TGF-β1 processing = molecular target: T1, pro TGF-β1 processing (Homo sapiens, UniProt P01137); assay: Western blot of pro TGF-β1 conversion to LAP and mature TGF-β1 in transfected HEK293T cells; settings: HEK293T cotransfected; cell extracts anti-LAP, supernatants anti-TGF-β1; FIG. 4D
# T1 construct: Flag; expressed in transfected cells; host or cells: HEK293T (A6); mouse embryo fibroblasts (A8)
# T1 sequence (P01137 30-390): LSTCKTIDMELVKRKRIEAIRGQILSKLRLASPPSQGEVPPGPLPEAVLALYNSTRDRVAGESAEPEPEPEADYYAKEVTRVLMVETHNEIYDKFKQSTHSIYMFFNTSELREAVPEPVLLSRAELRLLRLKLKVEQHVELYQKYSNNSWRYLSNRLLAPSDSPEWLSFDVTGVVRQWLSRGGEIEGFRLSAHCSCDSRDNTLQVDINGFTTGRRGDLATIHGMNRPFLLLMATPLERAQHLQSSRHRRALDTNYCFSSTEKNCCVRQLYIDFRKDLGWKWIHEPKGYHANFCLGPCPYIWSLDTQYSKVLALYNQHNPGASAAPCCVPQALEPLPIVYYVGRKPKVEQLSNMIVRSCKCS
# Excerpt: • The construct for emilin 1 expression was engineered in pCS2 vector (Rupp R. A. et al., 1994, Genes Dev 8, 1311-1323) (for a physical map of the vector, see the site faculty.washington.edu/rtmoon/pcs2+.html) as described (Zanetti M. et al., 2004, Mol Cell Biol 24, 638-650); the vector used for proTGF-β expression in MEF and HEK293T cells is pCDNA3.1 (Invitrogen). Vectors containing the coding sequence for human pro TGF-β are described in Young and Murphy-Ullrich, 2004 (Young and Murphy-Ullrich, 2004, J Biol Chem 279, 38032-38039). The human pro TGF-β cDNA sequence is reported in the data bank (NP_000660; protein 000651). • The vector for Furin/SPC 1 expression is pCDNA3.1 (Invitrogen) • p15 and CAGA 12 promoter fragments are described in Jonk L. J. et al., 1998, J Biol Chem 273, 21145-21152 […]. • Constructs containing Flag sequences are described in Young G. D and Murphy-Ullrich J E, 2004, J Biol Chem 279, 38032-38039. • Constructs containing the Flag epitope (e.g. Flag-EMI-domain-GPI) were prepared as described in Chubet R G et al. Biotechniques 1996; 20(1):136-141 and detected by anti-Flag antibody (Kodak Inc.). • Constructs containing the GPI anchor were prepared as described in the Manual “Current Protocols in Cell Biology” Howard R. Petty Wayne State University, Detroit, Mich.; Juan S. Bonifacino, Mary Dasso, Joe B. Harford, Jennifer Lippincott-Schwartz, and Kenneth M. Yamada (eds.), Copyright C 2003 John Wiley & Sons, Inc. (GPI-anchor). In the construct Flag-EMI domain-GPI, the Flag sequence was inserted at the N-terminus after the signal peptide, while the GPI-anchor sequence was placed at the COOH-terminal end. • The construct emilin 1-KDEL was obtained by inserting the KDEL coding sequence described by Munro S., and Pelham, H. R., 1987, Cell 48, 899-907 upstream the emilin 1 STOP codon. • The construct containing the type II TGF-β receptor with HA epitope was described in Wrana J. L. et al., 1994, Nature 370, 341-347. • supplier of the drugs used: SP600125 (Calbiochem), SB431542 (Tocris). • Purified recombinant LAP and TGF-β1 proteins were purchased from (R&D Systems)
# To verify whether emilin or its EMI domain inhibit TGF-β or its precursor, HEK293T cells were cotransfected with plasmids driving the expression of pro TGF-β1 (fused to the FLAG-domain, even though the antibody used were directed at LAP and TGF-β proteins) and emilin-1 (or EMI-domain). […] The anti-Flag antibody used was obtained from Kodak Inc; for the preparation of Flag constructs, see Younjg and Murphy-Ullrich (Young and Murphy-Ullrich, 2004).
# As reported in the summary scheme above FIG. 5A, HEK293T cells were transfected with the plasmid encoding pro TGF-β1 (lane 1) and cotransfected with emilin-1 (lane 3) or treated with decanoyl-RVKR-CMK peptide (Decanoyl-Arg-Val-Lys-Arg-chloromethylketone, Alexis Corporation, Lausen, Switzerland) (lane 2) at a concentration of 100 μM. The peptide is an irreversible and competitive inhibitor of furin proprotein convertase and of other SPC family members (Proprotein Convertase); in addition, it inhibits pro-MMP2 dependent furin activation. The supernatant was then loaded on SDS-PAGE and detected by Western-blot with anti-TGF-β1 antibody. […] An increase of the precursor band in lanes 2 and 3 is […] to the decrease of TGF-β. Therefore it can be concluded that this assay detects an effect of emilin-1 on TGF-β1 processing that is similar to the effect of Furin inhibitors.
# Furin/SPC 1 = molecular target: T2, Furin/SPC 1 (Homo sapiens, UniProt P09958); assay: Western blot (anti-LAP) of pro TGF-β1 cleavage in HEK293T cells co-transfected with Furin/SPC 1; settings: HEK293T cell extracts, FIG. 5B
# T2 construct: expressed in transfected cells; host or cells: HEK293T
# T2 sequence (P09958 108-794): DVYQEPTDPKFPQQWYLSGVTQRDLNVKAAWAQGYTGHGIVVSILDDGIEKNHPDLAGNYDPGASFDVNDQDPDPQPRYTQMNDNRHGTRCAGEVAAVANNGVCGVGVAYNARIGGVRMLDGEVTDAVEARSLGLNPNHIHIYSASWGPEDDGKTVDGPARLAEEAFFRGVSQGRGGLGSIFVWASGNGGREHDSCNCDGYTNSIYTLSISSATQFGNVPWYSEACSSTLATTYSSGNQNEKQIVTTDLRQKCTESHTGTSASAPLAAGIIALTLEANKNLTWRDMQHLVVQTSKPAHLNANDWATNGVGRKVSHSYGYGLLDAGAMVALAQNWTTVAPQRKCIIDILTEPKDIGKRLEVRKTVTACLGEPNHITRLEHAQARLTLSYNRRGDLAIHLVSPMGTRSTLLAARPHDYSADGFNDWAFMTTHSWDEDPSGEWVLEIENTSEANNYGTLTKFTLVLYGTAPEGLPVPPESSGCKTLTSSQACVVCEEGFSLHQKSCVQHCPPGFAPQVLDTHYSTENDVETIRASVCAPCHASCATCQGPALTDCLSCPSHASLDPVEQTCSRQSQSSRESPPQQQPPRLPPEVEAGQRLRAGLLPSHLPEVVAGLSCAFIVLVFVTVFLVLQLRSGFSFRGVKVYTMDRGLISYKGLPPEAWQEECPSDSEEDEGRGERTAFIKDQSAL
# Excerpt: To further investigate the role of emilin-1 on TGF-β processing, HEK293T cells were transfected with plasmids encoding pro TGF-β1, Furin/SPC 1 and EMI-domain, as shown in the scheme above FIG. 5B. Cell extracts were loaded on SDS-PAGE and detected by Western-blot with anti-LAP antibody.
# mature TGF-β1 = assay: CAGA12-lux luciferase reporter in HEK293T cells treated with recombinant TGF-β1; settings: 5 ng/ml recombinant TGF-β1, expression vector 500 ng, FIG. 2B
# Procedure: To verify how emilin or the EMI domain can contrast TGF-β1 activity independently from receptor binding, HEK293T cells were transfected with a construct coding luciferase placed under control of a TGF-β activated promoter: CAGA12-lux (Jonk et al., 1998) alone or in combination with a emilin1 expression vector (500 ng) as shown in FIG. 2B. After transfection, cells were treated (black bar) or not treated (white bar) with 5 ng/ml recombinant TGF-1 (lanes 1 and 2). Column bars from 3 to 6 report luciferase expression values in experiments with cells co-transfected with the expression vector for emilin1 (or EMI-domain or emilin1ΔEMI) alone (white bars) or in combination with the vector encoding pro TGF-β1 (black bars). Values show the mean±st. dev.
molecule,measurement,setting,value
"EMI domain: cysteine-rich domain of emilin-1, residues 55-131, SEQ ID NO 2; in some experiments Flag-tagged and GPI-anchored (protein, sometimes Flag tag and GPI anchor; homo sapiens, in some experiments Flag-tagged and GPI-anchored) RHRNWCAYVVTRTVSCVLEDGVETYVKYQPCAWGQPQCPQSIMYRRFLRPRYRVAYKTVTDMEWRCCQGYGGDDCAE",Conversion of pro TGF-β1 to LAP and mature TGF-β1 (band intensity),pro TGF-β1 processing,inhibit the conversion of pro TGF-β1
same,Furin-induced proteolytic cleavage product of pro TGF-β1,Furin/SPC 1,blocks the effect of Furin
same,Effect on luciferase expression induced by mature TGF-β,mature TGF-β1,does not antagonize mature TGF-β
